Data on five molecules can be found in article PMC8406188 (mBio, 2021).

In series [1] the target is OmpC(K255am) with benzoyl phenylalanine (Bpa) at residue 255 (E. coli) (UniProt P06996). Put plainly: SDS-PAGE of unheated and heated samples (heat-sensitive oligomers); OmpC amber mutants synthesized in PURExpress lacking release factor 1 with FluoroTect, tRNATAG-BPA, SurA, Rc LPS and Bam POPC proteoliposomes; 30 min, 30°C; with or without UV.
The target of series [2] is OmpC(K281am) with benzoyl phenylalanine (Bpa) at residue 281 (E. coli) (UniProt P06996). Described as above.
Series [3] concerns the molecule itself. Put plainly: SDS-PAGE of unheated and heated samples (heat-sensitive oligomers), with proteinase K; OmpC synthesized in PURExpress with FluoroTect, SurA, smooth LPS from E. coli O55:B5 (0.5 mg/ml) and Bam DLPC proteoliposomes; 30 min, 37°C.
Series [4] deals with the molecule itself. The experiment in a line: SDS-PAGE of unheated samples (oligomers), colloidal blue staining; urea-denatured OmpC folded into 1% DDM-0.4% DDG, 50 mM Tris pH 8.0, 1 mM DTT, 0.1 mM EDTA; 37°C, 24 h.
Series [5] deals with the molecule itself. Put plainly: SDS-PAGE of unheated and heated samples (heat-sensitive oligomers), with proteinase K; 0.2 μM urea-denatured OmpC S71C-BODIPY-FL added to SurA, Bam proteoliposomes (text: Bam DLPC; legend: Bam DMPC) and Rc LPS in a complete mixture of PURExpress components; 30 min, 37°C.

Where a chain is given by its changes, count along the chain named. Names and notes keep the numbering of the source. Values joined by “and” are separate entries in the source; they are usually repeats but may differ in a detail not shown here. Equal entries are not always repeated.

In series [1], “OmpC(K255am) with benzoyl phenylalanine (Bpa) at residue 255 (from UniProt P06996 22-367) (natural protein)” yielded a stoichiometry N of 3.
In series [2], “OmpC(K281am) with benzoyl phenylalanine (Bpa) at residue 281 (from UniProt P06996 22-367) (natural protein)” gave a stoichiometry N of 3.

B1: E. coli OmpC (wild type), synthesized in vitro without its signal peptide (natural protein, UniProt P06996 22-367, looked up)
chain: AEVYNKDGNKLDLYGKVDGLHYFSDNKDVDGDQTYMRLGFKGETQVTDQLTGYGQWEYQIQGNSAENENNSWTRVAFAGLKFQDVGSFDYGRNYGVVYDVTSWTDVLPEFGGDTYGSDNFMQQRGNGFATYRNTDFFGLVDGLNFAVQYQGKNGNPSGEGFTSGVTNNGRDALRQNGDGVGGSITYDYEGFGIGGAISSSKRTDAQNTAAYIGNGDRAETYTGGLKYDANNIYLAAQYTQTYNATRVGSLGWANKAQNFEAVAQYQFDFGLRPSLAYLQSKGKNLGRGYDDEDILKYVDVGATYYFNKNMSTYVDYKINLLDDNQFTRDAGINTDNIVALGLVYQF
modifications: fluorescent lysine residues (BODIPY-FL at the ε position, from FluoroTect GreenLys) incorporated during synthesis
Turning to B1, the “stoichiometry N” value in series [3] was 2 and 3.

B2: Urea-denatured wild-type OmpC purified from inclusion bodies (natural protein, E. coli, UniProt P06996 22-367, looked up)
chain: B1 chain
As to B2, in series [4], the “stoichiometry N” value came out at 3.

B3: Urea-denatured OmpC S71C, fluorescently labeled at residue 71 with BODIPY-FL (natural protein, E. coli, UniProt P06996 22-367, looked up)
chain: B1 chain with S71C
modifications: BODIPY-FL maleimide on the cysteine at 71
B3: the “stoichiometry N” value in series [5] is 2 and 3.
